Data reported in patent US20070274969A1.

Tests used:
[1] = target: human Bub1, endogenous (human) (UniProt O43683); assay: cell-based or functional assay
[2] = target: rat Bub1, endogenous (rat); assay: cell-based or functional assay

Sequence of human Bub1, endogenous (human) (O43683 whole entry): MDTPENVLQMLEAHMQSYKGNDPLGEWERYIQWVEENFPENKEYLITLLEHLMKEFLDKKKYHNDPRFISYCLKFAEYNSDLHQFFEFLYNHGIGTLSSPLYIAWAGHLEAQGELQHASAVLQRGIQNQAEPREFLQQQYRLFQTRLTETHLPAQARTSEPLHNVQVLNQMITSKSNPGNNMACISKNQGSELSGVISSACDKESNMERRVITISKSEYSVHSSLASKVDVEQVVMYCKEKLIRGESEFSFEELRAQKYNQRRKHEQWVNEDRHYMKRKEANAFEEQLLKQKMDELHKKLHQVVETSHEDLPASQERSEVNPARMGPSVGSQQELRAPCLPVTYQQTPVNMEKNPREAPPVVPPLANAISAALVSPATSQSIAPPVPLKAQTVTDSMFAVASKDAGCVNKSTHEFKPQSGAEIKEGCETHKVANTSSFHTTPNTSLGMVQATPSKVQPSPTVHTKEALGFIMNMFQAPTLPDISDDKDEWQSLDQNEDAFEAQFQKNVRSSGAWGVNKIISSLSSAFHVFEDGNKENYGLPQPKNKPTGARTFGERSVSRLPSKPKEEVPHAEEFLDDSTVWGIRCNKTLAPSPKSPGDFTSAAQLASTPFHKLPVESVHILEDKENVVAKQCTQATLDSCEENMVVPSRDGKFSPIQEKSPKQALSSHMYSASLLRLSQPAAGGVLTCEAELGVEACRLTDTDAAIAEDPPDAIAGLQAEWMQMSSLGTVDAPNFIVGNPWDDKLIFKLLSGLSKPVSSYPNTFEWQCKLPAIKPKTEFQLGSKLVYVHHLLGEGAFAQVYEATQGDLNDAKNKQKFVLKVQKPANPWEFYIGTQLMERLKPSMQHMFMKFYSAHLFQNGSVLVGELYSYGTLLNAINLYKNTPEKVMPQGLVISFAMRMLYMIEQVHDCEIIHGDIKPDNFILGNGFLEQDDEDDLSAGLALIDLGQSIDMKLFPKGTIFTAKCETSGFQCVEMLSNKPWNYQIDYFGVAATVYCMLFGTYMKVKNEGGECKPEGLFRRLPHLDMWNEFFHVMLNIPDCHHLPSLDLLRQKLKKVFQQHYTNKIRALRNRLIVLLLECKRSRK

In the case of “SV40 large T antigen, wild-type (from UniProt P03070 1-708)”, the % > 4N cells (endoreduplication), 100 ng/ml nocodazole [1] is reported as 45.7%, the mitotic index (phospho-histone H3 positive cells), nocodazole for 15 hours [1] is reported as 14.6% and the cells that proceed to anaphase at 24 ng/ml nocodazole, time-lapse microscopy of immortalized rat embryo fibroblasts [2] is reported as 90%.
